The source of these data is US20140087995A1 (published 2014).

Numbered stars: 1 amine (or outer) side, 2 acyl side, 3 side chain; on linkers, the order of the positions; unused ones are H or OH. Bridge positions count the residues as written; N and C are the ends. Side chains are listed from the residue outwards. Ends that are not written are not given here. * marks the point of attachment. C20 diacid = O=C(O)CCCCCCCCCCCCCCCCCCC(=O)*; γGlu = O=C(O)[C@H](CCC(=O)[*:2])N[*:1]

The target of test [1] is T1, human calcitonin receptor (human, UniProt P30988 25-474).
T1 sequence (looked up): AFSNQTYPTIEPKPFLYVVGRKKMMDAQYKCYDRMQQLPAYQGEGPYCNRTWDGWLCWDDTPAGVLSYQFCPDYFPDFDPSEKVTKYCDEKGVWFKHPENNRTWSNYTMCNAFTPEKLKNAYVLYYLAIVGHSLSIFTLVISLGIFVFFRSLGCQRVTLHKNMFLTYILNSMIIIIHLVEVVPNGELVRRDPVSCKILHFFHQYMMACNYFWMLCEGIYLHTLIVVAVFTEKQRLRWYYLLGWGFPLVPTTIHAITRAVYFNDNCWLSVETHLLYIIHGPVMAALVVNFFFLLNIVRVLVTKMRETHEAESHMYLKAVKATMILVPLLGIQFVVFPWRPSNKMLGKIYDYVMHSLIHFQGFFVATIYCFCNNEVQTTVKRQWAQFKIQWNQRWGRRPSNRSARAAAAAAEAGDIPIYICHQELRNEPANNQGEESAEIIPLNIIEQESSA
Nature of the test: cell-based or functional assay.

In test [2] the target is T2, human amylin receptor (amylin 3(a) receptor: human calcitonin receptor with RAMP-3) (human, UniProt P30988 25-474; O60896 24-148, limits assumed).
T2 sequence (looked up) 1: T1 sequence (looked up)
T2 sequence (looked up) 2: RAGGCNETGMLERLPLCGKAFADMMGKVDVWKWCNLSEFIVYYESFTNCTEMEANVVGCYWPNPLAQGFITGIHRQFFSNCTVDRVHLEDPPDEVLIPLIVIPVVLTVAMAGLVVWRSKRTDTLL
Nature of the test: cell-based or functional assay.

B1: N^ε1-[(4S)-4-carboxy-4-[[(4S)-4-carboxy-4-(19-carboxynonadecanoylamino)butanoyl]amino]butanoyl]-[Glu14,Arg17,Pro21,Pro27,Pro34,Phe37]-h-amylin (peptide)
peptide: K([γGlu-γGlu-C20 diacid])CNTATCATQRLAEFLRHSSPNFGAIPSSTNVGPNTF-NH2
modifications: disulfide 2-7; N-terminus assumed
SMILES: CC[C@H](C)[C@H](NC(=O)[C@H](C)NC(=O)CNC(=O)[C@H](Cc1ccccc1)NC(=O)[C@H](CC(N)=O)NC(=O)[C@@H]1CCCN1C(=O)[C@H](CO)NC(=O)[C@H](CO)NC(=O)[C@H](Cc1c[nH]cn1)NC(=O)[C@H](CCCNC(=N)N)NC(=O)[C@H](CC(C)C)NC(=O)[C@H](Cc1ccccc1)NC(=O)[C@H](CCC(=O)O)NC(=O)[C@H](C)NC(=O)[C@H](CC(C)C)NC(=O)[C@H](CCCNC(=N)N)NC(=O)[C@H](CCC(N)=O)NC(=O)[C@@H](NC(=O)[C@H](C)NC(=O)[C@@H]1CSSC[C@H](NC(=O)[C@@H](N)CCCCNC(=O)CC[C@H](NC(=O)CC[C@H](NC(=O)CCCCCCCCCCCCCCCCCCC(=O)O)C(=O)O)C(=O)O)C(=O)N[C@@H](CC(N)=O)C(=O)N[C@@H]([C@@H](C)O)C(=O)N[C@@H](C)C(=O)N[C@@H]([C@@H](C)O)C(=O)N1)[C@@H](C)O)C(=O)N1CCC[C@H]1C(=O)N[C@@H](CO)C(=O)N[C@@H](CO)C(=O)N[C@H](C(=O)N[C@@H](CC(N)=O)C(=O)N[C@H](C(=O)NCC(=O)N1CCC[C@H]1C(=O)N[C@@H](CC(N)=O)C(=O)N[C@H](C(=O)N[C@@H](Cc1ccccc1)C(N)=O)[C@@H](C)O)C(C)C)[C@@H](C)O
As to B1, in test [1], the “Ratio hCT/hAmylin funct.” value was 9.9 ratio and the “hCTR funct. EC50 (pM)” value worked out at 2140 pM. In addition, the “hAmylin-R funct. EC50 (pM)” value in test [2] worked out at 216 pM.
